From patent publication USRE46585 (LABORATOIRE FRANCAIS DU FRACTIONNEMENT ET DES …, dated 2017)
Changes are numbered by the printed parent chain.

B1: C6A_36 (other)
chain: CPPCPAPELLGGPSVFLFPPKPKDTLMISRTPEVTCVVVDVSHEDPEVKFNWYVDGVEVHNAKTKPREEQYNSTYRVVSVLPVLHQDWLDGKEYKCKVSNKALPAPIEKTISKAKGQPREPQVYTLPPSRDELTKNQVSLTCLVKGFYPSDIAVEWGSNGQPENNYKTTPPVLDSDGSFFLYSKLTVDKSRWQHGNVFSCSVMHEALHYHYTQKSLSLSPGK
notes: EU numbering
B2: T4A_46 (other)
chain: B1 chain with P5T, P82T, D90N, G157E, N164K, H194Q
notes: EU numbering
B3: T3A_15 (other)
chain: B1 chain with V39E, P82T, D90N, A153V, G157E, T169A, F179L, H194Q, Y209S
notes: EU numbering
B4: M3A_08 (other)
chain: B1 chain with V39E, D90N, A153T, G157E, V172M, H194Q, Y209N
notes: EU numbering
B5: C7A_37 (other)
chain: B1 chain with F16L, P82T, G157E, N164K, H194Q
notes: EU numbering
B6: C7A_43 (other)
chain: B1 chain with V39E, D90N, A153V, G157E, P171S, H194Q, Y209S
notes: EU numbering
B7: C8A_61 (other)
chain: B1 chain with P5T, V39E, P82T, D90N, G157E, P171L, H194Q
notes: EU numbering
B8: C7A_49 (other)
chain: B1 chain with P82T, A105V, G157E, T169A, H194Q
notes: EU numbering
B9: T3A_16 (other)
chain: B1 chain with F16L, V39E, D90N, A153V, G157E, H194Q, Y209N
notes: EU numbering
B10: T3A_13 (other)
chain: B1 chain with P82T, V144A, G157E, H194Q
notes: EU numbering
B11: T4A_45 (other)
chain: B1 chain with V39E, P82T, L84P, D90N, G157E, P171L, H194Q, Y209S
notes: EU numbering
B12: M3A_26 (other)
chain: B1 chain with V39E, D90N, K115E, Q117R, A153V, G157E, H194Q, Y209N
notes: EU numbering
B13: T3A_22 (other)
chain: B1 chain with F16L, V39E, P82T, D90N, A153V, G157E, H194Q, Y209S
notes: EU numbering
B14: T3A_34 (other)
chain: B1 chain with V39E, P82T, D90N, P127S, A153V, G157E, H194Q, Y209N
notes: EU numbering
B15: T3A_41 (other)
chain: B1 chain with V39E, D90N, A153V, G157E, H194Q, Y209N
notes: EU numbering
B16: T3A_10 (other)
chain: B1 chain with P82T, A105V, G157E, N164K, H194Q
notes: EU numbering
B17: C8A_14 (other)
chain: B1 chain with V80A, P82T, D90N, G157E, Q161R, H194Q
notes: EU numbering
B18: C7A_27 (other)
chain: B1 chain with V39E, P82N, D90N, A153V, G157E, V172M, H194Q
notes: EU numbering
B19: T3A_11 (other)
chain: B1 chain with P66S, P82T, A102V, A105V, G157E, H194Q
notes: EU numbering
B20: M3B_23 (other)
chain: B1 chain with F16L, V39E, D90N, G157E, H194Q, Y209N
notes: EU numbering
B21: T4A_43 (other)
chain: B1 chain with P82T, D90N, I107V, K145R, A153V, G157E, H194Q, Y209S
notes: EU numbering
B22: T3A_08 (other)
chain: B1 chain with V39E, P82T, D90N, A153V, G157E, F179L, H194Q, Y209N
notes: EU numbering
B23: T4A_41 (other)
chain: B1 chain with F16R, V39E, D90N, A153V, G157E, H194Q, Y209N
notes: EU numbering
B24: M3A_12 (other)
chain: B1 chain with P82T, Q137R, G157E, H194Q, N196D, Y209S
notes: EU numbering
B25: T4A_44 (other)
chain: B1 chain with C1G, V39E, P82T, D90N, A153V, G157E, F179L, H194Q, Y209N
notes: EU numbering
B26: C7A_02 (other)
chain: B1 chain with V39E, P82T, D90N, K145R, A153V, G157E, H194Q
notes: EU numbering
B27: M3A_34 (other)
chain: B1 chain with S42N, P82N, D90N, K145R, A153V, G157E, H194Q, Y209N
notes: EU numbering
B28: T4A_39 (other)
chain: B1 chain with V39E, P82T, D90N, A153V, G157E, P171L, H194Q, Y209N
notes: EU numbering
B29: M3A_18 (other)
chain: B1 chain with D90N, A153V, G157E, H194Q, N196T, Y209N
notes: EU numbering
B30: M3A_35 (other)
chain: B1 chain with V39E, P82T, G157E, P171L, H194Q, Y209N
notes: EU numbering
B31: T4A_31 (other)
chain: B1 chain with P5T, F16L, V39E, D90N, A153V, G157E, H194Q, Y209N
notes: EU numbering
B32: T3A_30 (other)
chain: B1 chain with V39E, P82T, D90N, A153V, G157E, H194Q, V197A, Y209N
notes: EU numbering
B33: C7A_89 (other)
chain: B1 chain with D90N, A102T, G157E, N164T, H194Q, N196T
notes: EU numbering
B34: T3A_47 (other)
chain: B1 chain with D90N, A153T, G157E, V172M, H194Q, Y209N
notes: EU numbering
B35: C8A_08 (other)
chain: B1 chain with V39A, P82T, A105V, G157E, H194Q
notes: EU numbering
B36: M3A_06 (other)
chain: B1 chain with F16L, V39E, P82T, D90N, A153T, G157E, V172M, H194Q, Y209N
notes: EU numbering
B37: T3A_01 (other)
chain: B1 chain with V39E, D90N, A153V, G157E, H194Q, N196T, Y209N
notes: EU numbering
B38: T4A_32 (other)
chain: B1 chain with V39E, P82T, D90N, A153V, G157E, H194Q, H208R, Y209N
notes: EU numbering
B39: T4A_04 (other)
chain: B1 chain with P82T, A105V, G157V, H194Q
notes: EU numbering
B40: T4A_26 (other)
chain: B1 chain with V39E, D90N, A153V, Q161R, H194Q, Y209N
notes: EU numbering
B41: C7A_68 (other)
chain: B1 chain with V39E, P82T, A153V, G157E, N165S, H194Q, G195R
notes: EU numbering
B42: C7A_13 (other)
chain: B1 chain with F16L, V39E, P82T, D90N, A153V, G157E, H194Q, N196T
notes: EU numbering
B43: T4A_18 (other)
chain: B1 chain with P82T, Q117R, G157V, H194Q
notes: EU numbering
B44: C7A_18 (other)
chain: B1 chain with V39E, P82T, D90N, A153V, G157E, K189R, H194Q, N196T
notes: EU numbering
B45: T3A_43 (other)
chain: B1 chain with V39E, P82T, D90N, E120G, A153V, G157E, H194Q, Y209N
notes: EU numbering
B46: M3B_04 (other)
chain: B1 chain with F16L, V39E, P82T, D90N, Q117R, A153V, G157E, H194Q, Y209N
notes: EU numbering
B47: T4A_19 (other)
chain: B1 chain with D90N, A153V, G157E, H194Q, Y209S
notes: EU numbering
B48: M3A_21 (other)
chain: B1 chain with F16L, V39E, D90N, A153V, G157E, H194Q, N196T, Y209N
notes: EU numbering
B49: T4A_34 (other)
chain: B1 chain with V39E, P82T, D90N, A153V, G157E, Q193K, H194Q, Y209N
notes: EU numbering
B50: C8A_41 (other)
chain: B1 chain with P82T, G157V, H194Q, H208P
notes: EU numbering
B51: C7A_22 (other)
chain: B1 chain with P82T, K109E, A153V, G157E, H194Q
notes: EU numbering

Each binder was assayed against T1, FcRn-p3 fusion protein (human, UniProt P55899 24-297; P61769 21-119) (assay: phage ELISA pH6).
T1 construct: baculovirus expressed; coated on ELISA wells; not shown: amino terminal part of bacteriophage p3 protein and CVDE protein
T1 sequence (P55899 24-297, chain 1 of 2): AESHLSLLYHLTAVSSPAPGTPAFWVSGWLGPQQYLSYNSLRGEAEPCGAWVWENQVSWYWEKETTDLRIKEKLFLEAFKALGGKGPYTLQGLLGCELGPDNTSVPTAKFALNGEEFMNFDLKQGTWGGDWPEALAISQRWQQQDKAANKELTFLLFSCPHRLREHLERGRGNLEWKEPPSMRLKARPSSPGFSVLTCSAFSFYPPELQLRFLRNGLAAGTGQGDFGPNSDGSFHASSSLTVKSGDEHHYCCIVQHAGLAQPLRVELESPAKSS
T1 sequence (P61769 21-119, chain 2 of 2): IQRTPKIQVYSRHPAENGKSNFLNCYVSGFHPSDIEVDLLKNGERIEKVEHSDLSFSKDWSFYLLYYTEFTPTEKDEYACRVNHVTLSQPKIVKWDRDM

| Binder | Ratio/Fc-H [fold] |
| --- | --- |
| B1 | 3.4 |
| B2 | 3.6 |
| B3 | 2.8 |
| B4 | 1.7 |
| B5 | 2.2 |
| B6 | 3.6 |
| B7 | 1.7 |
| B8 | 1.7 |
| B9 | 2.3 |
| B10 | 1.8 |
| B11 | 2.7 |
| B12 | 1.8 |
| B13 | 3.8 |
| B14 | 1.4 |
| B15 | 2.3 |
| B16 | 2.4 |
| B17 | 2.4 |
| B18 | 2.6 |
| B19 | 1.3 |
| B20 | 1.2 |
| B21 | 2 |
| B22 | 1.1 |
| B23 | 2.5 |
| B24 | 1.1 |
| B25 | 3.8 |
| B26 | 2.2 |

| Binder | Ratio/Fc-H [fold] |
| --- | --- |
| B27 | 1.3 |
| B28 | 1.4 |
| B29 | 1.9 |
| B30 | 1.1 |
| B31 | 3.7 |
| B32 | 1.1 |
| B33 | 2.3 |
| B34 | 2 |
| B35 | 2 |
| B36 | 1.8 |
| B37 | 2.4 |
| B38 | 2.3 |
| B39 | 3 |
| B40 | 3.6 |
| B41 | 3.4 |
| B42 | 2.3 |
| B43 | 3 |
| B44 | 2.8 |
| B45 | 1.4 |
| B46 | 1.7 |
| B47 | 3.6 |
| B48 | 2.6 |
| B49 | 1.3 |
| B50 | 2.7 |
| B51 | 1.8 |

Each binder was assayed against T1, FcRn-p3 fusion protein (assay: phage ELISA pH6 (est.)).

| Binder | Ratio/FWT [fold] |
| --- | --- |
| B1 | 10.9 |
| B2 | 11.4 |
| B3 | 8.9 |
| B4 | 5.6 |
| B5 | 6.9 |
| B6 | 11.5 |
| B7 | 5.5 |
| B8 | 5.3 |
| B9 | 7.4 |
| B10 | 5.6 |
| B11 | 8.7 |
| B12 | 5.6 |
| B13 | 12.2 |
| B14 | 4.6 |
| B15 | 7.2 |
| B16 | 7.8 |
| B17 | 7.6 |
| B18 | 8.2 |
| B19 | 4 |
| B20 | 3.8 |
| B21 | 6.3 |
| B22 | 3.5 |
| B23 | 8 |
| B24 | 3.4 |
| B25 | 12 |
| B26 | 6.9 |

| Binder | Ratio/FWT [fold] |
| --- | --- |
| B27 | 4.3 |
| B28 | 4.4 |
| B29 | 6.2 |
| B30 | 3.7 |
| B31 | 11.7 |
| B32 | 3.4 |
| B33 | 7.4 |
| B34 | 6.3 |
| B35 | 6.4 |
| B36 | 5.7 |
| B37 | 7.8 |
| B38 | 7.4 |
| B39 | 9.7 |
| B40 | 11.5 |
| B41 | 10.9 |
| B42 | 7.4 |
| B43 | 9.7 |
| B44 | 8.9 |
| B45 | 4.5 |
| B46 | 5.5 |
| B47 | 11.4 |
| B48 | 8.4 |
| B49 | 4.3 |
| B50 | 8.8 |
| B51 | 5.7 |
